Data from the supplement of paper PMC10567573.

B1: TEKT4 (parent)
chain: SEVEELNMSLTALREKLLEAEQSL

Variants of: B1
Assay: protein stability index of a GFP-peptide fusion (GPS, HEK-293T) (PSI 1-6); higher = more stable
Details: c terminus: a fixed tail appended
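Also: lentivirally expressed fusions sorted by FACS into six bins by GFP to DsRed ratio, PSI derived from sequencing read proportions per bin multiplied by bin number.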

| Variant | protein stability index |
| --- | --- |
| SEVEELNMSLTALREKLHEAEQSL | 3.84 |
| SEVEELNMSLTALREKLNEAEQSL | 4.11 |
| SEVEELNMSLTALREKLIEAEQSL | 2.39 |
| SEVEELNMSLTALRTKLLEAEQSL | 2.44 |
| SEVEELNMSLTALRHKLLEAEQSL | 2.94 |
| SEVEELNMSLTALRNKLLEAEQSL | 2.54 |
| SEVEELNMSLTALRMKLLEAEQSL | 2.18 |
| SEVEELNMSLTALRRKLLEAEQSL | 3.11 |
| SEVEELNMSLTALRYKLLEAEQSL | 2.15 |
| SEVEELNMSLTALRGKLLEAEQSL | 3.04 |
| SEVEELNMSLTALRVKLLEAEQSL | 2.3 |
| SEVEELNMSLTALRIKLLEAEQSL | 2.62 |
| SEVEELNMSLTALRLKLLEAEQSL | 2.1 |
| SEVEELNMSLTALRQKLLEAEQSL | 2.52 |
| SEVEELNMSLTALRWKLLEAEQSL | 1.59 |
| SEVEELNMSLTALRPKLLEAEQSL | 3.76 |
| SEVEELNMSLTALRKKLLEAEQSL | 3.38 |
| SEVEELNMSLTALRSKLLEAEQSL | 2.27 |
| SEVEELNMSLTALREKLLQAEQSL | 2.36 |
| SEVEELNMSLTALREKLLMAEQSL | 2.92 |
| SEVEELNMSLTALREKLLTAEQSL | 3.6 |
| SEVEELNMSLTALREKLLAAEQSL | 2.69 |
| SEVEELNMSLTALREKLLYAEQSL | 2.62 |
| SEVEELNMSLTALREKLLFAEQSL | 2.24 |

| Variant | protein stability index |
| --- | --- |
| SEVEELNMSLTALREKLLNAEQSL | 3.71 |
| SEVEELNMSLTALREKLLGAEQSL | 3.95 |
| SEVEELNMSLTALREKLLDAEQSL | 3.49 |
| SEVEELNMSLTALREKLLWAEQSL | 2.26 |
| SEVEELNMSLTALREKLLIAEQSL | 2.31 |
| SEVEELNMSLTALREKLLLAEQSL | 2.39 |
| SEVEELNMSLTALREKLLSAEQSL | 3.41 |
| SEVEELNMSLTALREKLLCAEQSL | 3.04 |
| SEVEELNMSLTALREKLLHAEQSL | 3.26 |
| SEVEELNMSLTALREKLLVAEQSL | 3.66 |
| SEVEELNMSLTALREKLLKAEQSL | 3.97 |
| SEVEELNMSLTALREKLLRAEQSL | 2.78 |
| SEVEELNMSLTALREKLLPAEQSL | 4.07 |
| SEVEELNMSLTALREKLLEAEQVL | 2.87 |
| SEVEELNMSLTALREKLLEAEQCL | 2.39 |
| SEVEELNMSLTALREKLLEAEQGL | 3.66 |
| SEVEELNMSLTALREKLLEAEQKL | 3.17 |
| SEVEELNMSLTALREKLLEAEQPL | 4.45 |
| SEVEELNMSLTALREKLLEAEQFL | 2.48 |
| SEVEELNMSLTALREKLLEAEQHL | 2.31 |
| SEVEELNMSLTALREKLLEAEQIL | 2.74 |
| SEVEELNMSLTALREKLLEAEQLL | 2.37 |
| SEVEELNMSLTALREKLLEAEQDL | 3.36 |
| SEVEELNMSLTALREKLLEAEQWL | 2.75 |

| Variant | protein stability index |
| --- | --- |
| SEVEELNMSLTALREKLLEAEQEL | 3.93 |
| SEVEELNMSLTALREKLLEAEQAL | 2.47 |
| SEVEELNMSLTALREKLLEAEQTL | 2.77 |
| SEVEELNMSLTALREKLLEAEQNL | 3.21 |
| SEVEELNMSLTALREKLLEAEQML | 2.74 |
| SEVEELNMSLTALREKLLEAEQQL | 2.72 |
| SEVEELNMSLTALREKLLEAEQYL | 2.33 |
| SEVEELNMSLTALREKLLEAEQRL | 2.9 |
| SEVEELNMSLTALREKILEAEQSL | 4.28 |
| SEVEELNMSLTALREKELEAEQSL | 5.46 |
| SEVEELNMSLTALREKPLEAEQSL | 5.42 |
| SEVEELNMSLTALREKNLEAEQSL | 4.89 |
| SEVEELNMSLTALREKMLEAEQSL | 2.51 |
| SEVEELNMSLTALREKSLEAEQSL | 4.9 |
| SEVEELNMSLTALREKWLEAEQSL | 3.41 |
| SEVEELNMSLTALREKYLEAEQSL | 4.05 |
| SEVEELNMSLTALREKRLEAEQSL | 3.69 |
| SEVEELNMSLTALREKKLEAEQSL | 5.36 |
| SEVEELNMSLTALREKALEAEQSL | 5.53 |
| SEVEELNMSLTALREKVLEAEQSL | 4.45 |
| SEVEELNMSLTALREKCLEAEQSL | 4.21 |
| SEVEELNMSLTALREKHLEAEQSL | 5.01 |
| SEVEELNMSLTALREKFLEAEQSL | 3.69 |
| SEVEELNMSLTALREKGLEAEQSL | 5.38 |

| Variant | protein stability index |
| --- | --- |
| SEVEELNMSLTALREKDLEAEQSL | 5.26 |
| SEVEELNMSLTALREKQLEAEQSL | 4.98 |
| SEVEELNMSLTALREKTLEAEQSL | 5.16 |
| SEVEELNMSLTALREKLLEMEQSL | 3.73 |
| SEVEELNMSLTALREKLLEYEQSL | 3.88 |
| SEVEELNMSLTALREKLLEQEQSL | 4.32 |
| SEVEELNMSLTALREKLLEPEQSL | 4.76 |
| SEVEELNMSLTALREKLLEGEQSL | 4.88 |
| SEVEELNMSLTALREKLLEWEQSL | 2.95 |
| SEVEELNMSLTALREKLLECEQSL | 4 |
| SEVEELNMSLTALREKLLEDEQSL | 4.72 |
| SEVEELNMSLTALREKLLEVEQSL | 4.41 |
| SEVEELNMSLTALREKLLETEQSL | 4.26 |
| SEVEELNMSLTALREKLLESEQSL | 4.18 |
| SEVEELNMSLTALREKLLEFEQSL | 3.79 |
| SEVEELNMSLTALREKLLEIEQSL | 3.55 |
| SEVEELNMSLTALREKLLEHEQSL | 3.93 |
| SEVEELNMSLTALREKLLEEEQSL | 5.04 |
| SEVEELNMSLTALREKLLENEQSL | 4.52 |
| SEVEELNMSLTALREKLLEREQSL | 4.28 |
| SEVEELNMSLTALREKLLELEQSL | 3.98 |
| SEVEELNMSLTALREKLLEKEQSL | 4.9 |
